# Results reported in paper doi:10.1101/2023.05.24.542197.
# Biological target: Dicer (endogenous human Dicer) (human (endogenous in HeLa and HEK 293T)) (UniProt Q9UPY3)
# Assay: proximity ligation
# Sequence of UniProt Q9UPY3 (Q9UPY3 whole entry): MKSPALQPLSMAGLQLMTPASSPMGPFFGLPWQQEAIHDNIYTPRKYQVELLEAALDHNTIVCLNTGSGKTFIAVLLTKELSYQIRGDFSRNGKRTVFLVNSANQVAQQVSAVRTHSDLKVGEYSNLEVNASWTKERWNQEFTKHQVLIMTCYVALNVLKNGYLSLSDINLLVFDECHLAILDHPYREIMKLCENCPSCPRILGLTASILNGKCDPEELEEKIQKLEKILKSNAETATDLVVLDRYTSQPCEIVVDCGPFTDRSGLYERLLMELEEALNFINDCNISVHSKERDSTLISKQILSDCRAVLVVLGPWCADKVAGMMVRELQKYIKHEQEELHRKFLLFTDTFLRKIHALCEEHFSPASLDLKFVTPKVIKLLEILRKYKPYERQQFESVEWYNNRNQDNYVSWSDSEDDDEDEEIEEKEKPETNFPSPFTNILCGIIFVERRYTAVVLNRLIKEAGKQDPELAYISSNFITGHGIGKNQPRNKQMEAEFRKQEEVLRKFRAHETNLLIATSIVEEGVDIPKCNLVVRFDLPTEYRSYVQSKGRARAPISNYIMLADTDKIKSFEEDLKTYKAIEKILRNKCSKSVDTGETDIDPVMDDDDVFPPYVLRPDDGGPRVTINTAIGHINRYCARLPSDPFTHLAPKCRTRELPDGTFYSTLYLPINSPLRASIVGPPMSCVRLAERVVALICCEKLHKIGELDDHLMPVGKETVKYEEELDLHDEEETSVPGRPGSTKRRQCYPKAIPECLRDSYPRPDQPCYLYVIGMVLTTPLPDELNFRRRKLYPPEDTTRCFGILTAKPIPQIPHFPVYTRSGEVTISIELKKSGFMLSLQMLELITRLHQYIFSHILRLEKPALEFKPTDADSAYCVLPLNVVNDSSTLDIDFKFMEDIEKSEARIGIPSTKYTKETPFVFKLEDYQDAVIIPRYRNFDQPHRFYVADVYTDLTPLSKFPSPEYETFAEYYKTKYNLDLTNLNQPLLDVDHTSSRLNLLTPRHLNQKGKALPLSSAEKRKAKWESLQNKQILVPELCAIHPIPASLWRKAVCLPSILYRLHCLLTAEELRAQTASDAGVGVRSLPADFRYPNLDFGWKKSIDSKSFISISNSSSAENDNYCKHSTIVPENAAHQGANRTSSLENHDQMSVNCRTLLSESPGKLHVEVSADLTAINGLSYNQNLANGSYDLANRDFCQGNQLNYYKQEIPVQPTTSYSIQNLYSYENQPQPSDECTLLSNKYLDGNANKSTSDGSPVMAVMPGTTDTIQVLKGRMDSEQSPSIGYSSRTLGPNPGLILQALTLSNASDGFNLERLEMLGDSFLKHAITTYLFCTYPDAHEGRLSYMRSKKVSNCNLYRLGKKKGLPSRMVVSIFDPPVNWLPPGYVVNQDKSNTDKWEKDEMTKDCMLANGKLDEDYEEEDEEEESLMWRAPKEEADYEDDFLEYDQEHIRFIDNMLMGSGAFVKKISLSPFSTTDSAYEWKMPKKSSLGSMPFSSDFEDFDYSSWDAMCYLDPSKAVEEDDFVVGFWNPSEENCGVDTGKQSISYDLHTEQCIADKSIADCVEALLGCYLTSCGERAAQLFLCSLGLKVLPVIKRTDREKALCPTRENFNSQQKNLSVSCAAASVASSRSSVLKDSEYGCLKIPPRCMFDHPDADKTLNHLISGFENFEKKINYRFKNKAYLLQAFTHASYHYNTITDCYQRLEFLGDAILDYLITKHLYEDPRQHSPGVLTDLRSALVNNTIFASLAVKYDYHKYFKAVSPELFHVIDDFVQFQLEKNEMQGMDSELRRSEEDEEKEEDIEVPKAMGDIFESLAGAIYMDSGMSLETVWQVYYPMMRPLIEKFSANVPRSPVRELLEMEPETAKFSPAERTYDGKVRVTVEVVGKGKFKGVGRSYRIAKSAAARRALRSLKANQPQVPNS
substance,measurement,value
Flag-Gag (pCI-Neo-Flag-Gag) (natural protein),PLA proximity events in a cell (highest) (proximity events per cell),< 36
